Experimental findings from the supplement of paper PMC9170038 are described below.

The test system of this data set is MS2 coat protein. The data set can be described thus: apparent KD of MS2 coat protein; designed switch direction (-1 OFF switch, 1 ON switch): -1; higher = weaker reporter binding. The method, boiled down:
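Designed RNA switches with common flanks were transcribed on Illumina chips by stalled E. coli RNA polymerase and titrated with SNAP-549-labelled MS2 coat protein, from 0.7 or 1.5 nM doubling to 3 µM, in Tris-HCl pH 7.5 buffer with KCl, MgCl2, BSA, DTT, tRNA and Tween-20. Steps lasted 0.8–1.5 h (lowest) to 10–20 min (highest). Titrations ran without input, with 200 uM small-molecule ligand, or with an oligonucleotide input. Normalised cluster fluorescence was curve-fitted, and apparent KD is the per-design median over clusters.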

Setting [1] is: Eterna round: R95, input ligand: FMN 200 uM.
Where [2] appears, read: Eterna round: R95, input ligand: microRNA oligo, concentration not stated.
[3] abbreviates: Eterna round: R95, input ligand: none.
Setting [4] is: input ligand: microRNA oligo, concentration not stated.

As for “CUCCUCAUGGCGCCUAAACACAUGAGGAUCACCCAUGUACAGGCUUUCUGCCGUCUUAUAAUAAAACCGAGGAUGCG [Soedlexe] (puzzle: Sensor v3, turn-off variant 1)”, the “apparent KD of MS2 coat protein” value reads like this: under setting [1], 33.6 nM; under setting [2], 212 nM; under setting [3], 42.1 nM.

“UUAUUAAAUGUAGGAUAUGCAUAUUAUUAUUAUGCAGAAGGACAUGAGGAUCACCCAUGUAUAUUAUUAUUAUUUAUUAUAUAU [Title] (Eterna round: R96, puzzle: Exclusion NG 1)”: the “apparent KD of MS2 coat protein” value under setting [4] is 36.1 nM.

Regarding “UGGUGUGCGAAGGAUAUGUAGGCUAUCAUGUCAAUAGAAGGUUGCACAUGAGGAUCACCCAUGUAAGCCACUUA [Eternabot (L1) Solution 17] (Eterna round: R97, puzzle: Exclusion 6)”, the “apparent KD of MS2 coat protein” value reads like this: (input ligand: FMN 200 uM) 69.2 nM; (input ligand: none) 83 nM.

“CUAGCGGAUGUAGGAUAUCGGACUGUUUCAGUCUGAGAAGGACAUGAGGAUCACCCAUGUAUAGCUACGUGAGUAGCUCGCUAG [JL ENG1 3.95] (Eterna round: R96, puzzle: Exclusion NG 1)”: the “apparent KD of MS2 coat protein” value (input ligand: FMN 200 uM) is 38.1 nM, the “apparent KD of MS2 coat protein” value under setting [4] stood at 15.3 nM and the “apparent KD of MS2 coat protein” value (input ligand: none) was 22.8 nM.

In the case of “GCCAGAGCAGGAUAUUCAAUAUCACACAUGAGGAUCACCCAUGUCUGGCGAAAGCUAGAGGGAGAAGGGCUCUGGC [Mat - Exclusion 5 - Eli mod - D97] (puzzle: Exclusion 5)”, the “apparent KD of MS2 coat protein” value came out at 17.9 nM under setting [1], 38.8 nM under setting [2] and 55.2 nM under setting [3].

As for “GAUUGAGAGCAGGAUAUAUUCCUGAUGUAUGAAGUAGAAGGGCUCACAUGAGGAUCACCCAUGUGAUCCUGAAU [JL Dibri mod 17 mod] (Eterna round: R97, puzzle: Exclusion 6)”, the “apparent KD of MS2 coat protein” value (input ligand: FMN 200 uM) was 15.3 nM and the “apparent KD of MS2 coat protein” value (input ligand: none) was 14.3 nM.

Take “UAUAAUACAUAGGAUAUCGAAAUAAUCAUUUAACGAGAAGGAUGAACAUGAGGAUCACCCAUGUGGUAUCAUGG [Mat - Exclusion 6 - JL Mod - D11] (puzzle: Exclusion 6)”: the “apparent KD of MS2 coat protein” value stood at 379 nM under setting [1], 328 nM under setting [2] and 319 nM under setting [3].

In the case of “UUGUUAUGUGUAGGAUAUGCAUAUUAUUAUUAUGCAGAAGGACAUGAGGAUCACCCAUGUAUAUUAUUAUUAUAUGUUAUAUAU [Title] (Eterna round: R96, puzzle: Exclusion NG 1)”, the “apparent KD of MS2 coat protein” value by setting is: (input ligand: FMN 200 uM) 29.3 nM; under setting [4], 19 nM; (input ligand: none) 22.8 nM.

“GCAGCAUAGUCCAAAUAGGACAUACAUGAGGAUCACCCAUGUCAGGAUAUGGUCUGGAUUACAGGCCAGAAGGGACAAAGCUGC [Eli exng3 - 001] (Eterna round: R96, puzzle: Exclusion NG 3)”: the “apparent KD of MS2 coat protein” value (input ligand: FMN 200 uM) stood at 30.4 nM, the “apparent KD of MS2 coat protein” value under setting [4] is 22.3 nM and the “apparent KD of MS2 coat protein” value (input ligand: none) amounted to 27.9 nM.

On to “GUUGUUUAUGUAGGAUAUGCCUGGCGUGCCUUUGCAGAAGGACAUGAGGAUCACCCAUGUAACAUGAGGCUCACCCAUGUCGCG [salish99_ExNG1_r04_109] (Eterna round: R96, puzzle: Exclusion NG 1)”, for which the “apparent KD of MS2 coat protein” value reads like this: (input ligand: FMN 200 uM) 438 nM; under setting [4], 185 nM; (input ligand: none) 277 nM.

With “GAAAAGGUAGGAUAUGCGAAAAAAAAGGGUAGAAAAAAAACACAUGAGGAUCACCCAUGUAGAAGGACCAAAAG [salish99_ex2_r3_031] (puzzle: Exclusion 2)”, the “apparent KD of MS2 coat protein” value by setting is: under setting [1], 26.1 nM; under setting [2], 31.2 nM; under setting [3], 32 nM.

With “AAUCCACAUGAGGAUCACCCAUGUUAGGAUAUCGCGGAGAUCGACUGCGGAAGUUCUGCGAGAAGGAGCGUGAU [Eternabot (L2) Solution 18] (Eterna round: R97, puzzle: Exclusion 1)”, the “apparent KD of MS2 coat protein” value (input ligand: FMN 200 uM) came to 51.6 nM and the “apparent KD of MS2 coat protein” value (input ligand: none) is 44 nM.

Turning to “ACAUGUGUUGUAGGAUAUAGGAUACAUGAGGAUCACCCAUGUGGAUUCAUGUCAAAGGAAACGUCCUAGAAGGACGACAACAUG [Ex NG2 #23] (Eterna round: R96, puzzle: Exclusion NG 2)”, the “apparent KD of MS2 coat protein” value by setting is: (input ligand: FMN 200 uM) 176 nM; under setting [4], 53.2 nM; (input ligand: none) 84.3 nM.

As for “UACACCACAUGAGGAUCAAACAUGAGGAUCACCCAUGUAUAACAAGCUUUUUGCUCGUCUUAUAAAUAUGUGGUGUA [Electric Eye 5 - Jieux - Sensor, turn-off variant 1] (Eterna round: R97, puzzle: Sensor, turn-off variant 1)”, the “apparent KD of MS2 coat protein” value stood at 14.2 nM (input ligand: FMN 200 uM) and 14.5 nM (input ligand: none).

As for “AAGAACGGUAAGGAUAUCCAUGUGAAAUAAAGAGGAGAAGGUACCACAUGAGGAUCACCCAUGUGGCUCUCAAA [EX6 B.30] (Eterna round: R97, puzzle: Exclusion 6)”, the “apparent KD of MS2 coat protein” value runs as follows: (input ligand: FMN 200 uM) 13.8 nM; (input ligand: none) 11.5 nM.

“UGUCAGAUGGUAGGAUAUCCAUAUCGAGUGACCCUUUCUUAACAUGAGGAUCACCCAUGUCGGUGGGAGAAGGGCCGUAUGGUG [salish99_ExNG02_R04_032] (Eterna round: R96, puzzle: Exclusion NG 2)”: the “apparent KD of MS2 coat protein” value turned out to be 31.4 nM (input ligand: FMN 200 uM), 24 nM under setting [4] and 29.9 nM (input ligand: none).

For “UCCGUGUCAGGAUAUAACUGGUCGAGCGCAGAAGCGUCCUGUUAGAAGGGACAUGAGGAUCACCCAUGUUUAAC [Eternabot (L1) Solution 74] (Eterna round: R97, puzzle: Exclusion 4)”, the “apparent KD of MS2 coat protein” value turned out to be 213 nM (input ligand: FMN 200 uM) and 38.5 nM (input ligand: none).

As to “UCAAGUAUGUAGGAUAUCGAUGUCCUCGGACAUCGAGAAGGACGUACAUGAGGAUCACCCAUGUAACUUGCAUG [Exclusion 6 - B - 10:b] (puzzle: Exclusion 6)”, the “apparent KD of MS2 coat protein” value under setting [2] stood at 44.3 nM.

Consider “CAGUACUGAGGAUAUACAUGAGGAUCACCCAUGUGUAGAUGAAAAUUAAUUUUAUUAUGUAGAAGGCGGUGCUG [JR_Ex3_Sub045] (Eterna round: R97, puzzle: Exclusion 3)”, for which the “apparent KD of MS2 coat protein” value was determined as 85.1 nM (input ligand: FMN 200 uM) and 23.3 nM (input ligand: none).

Take “ACGCCGCAAGGAUAUACUUGCGGUGAUGUUCGAGUUCUUCUACUUGAGGAUCACCCAAGUAGAAGGUGCAAAAC [jl-ex2.4.60 ViennaUCT mod] (Eterna round: R97, puzzle: Exclusion 2)”: the “apparent KD of MS2 coat protein” value runs as follows: (input ligand: FMN 200 uM) 14.9 nM; (input ligand: none) 14 nM.

Regarding “GGCUAGUCAGGAUAUACGAACAUGUCAAAAGACGUGAAGGGACAUGAGGAUCACCCAUGUAGAAGGGACUAGCA [salish99-ex2-12] (Eterna round: R96, puzzle: Exclusion 2)”, the “apparent KD of MS2 coat protein” value is, setting by setting: (input ligand: FMN 200 uM) 187 nM; under setting [4], 21 nM; (input ligand: none) 28 nM.

Take “AUCCAGGCAGGAUAUUGCCGGUUGCACAUGAGGAUCACCCAUGUACUCCUAGGUCGAUGGCAAGAAGGGCUAUCCA [Eternabot (Original) Solution 24] (Eterna round: R97, puzzle: Exclusion 5)”: the “apparent KD of MS2 coat protein” value reads like this: (input ligand: FMN 200 uM) 26.6 nM; (input ligand: none) 36 nM.

With “UUUUCCAGAGGAUAUGCGAAUAAAUAAAACUUUUUUUUUUAACAUGAGGAUCACCCAUGUAGAAGGCUGCUUUU [Ex2 #27] (Eterna round: R97, puzzle: Exclusion 2)”, the “apparent KD of MS2 coat protein” value (input ligand: FMN 200 uM) worked out at 27.1 nM and the “apparent KD of MS2 coat protein” value (input ligand: none) came out at 30.1 nM.

Regarding “ACAUGAGGAUCACCCAUGUGAAAACAAUGGCUGACUUUGAGAUAGGAUAUAGGUGCAUAUCAAACCUAGAAGGGUCAUUACUGG [Deportation 91 - Jieux - Exclusion NG 3] (Eterna round: R96, puzzle: Exclusion NG 3)”, the “apparent KD of MS2 coat protein” value reads like this: (input ligand: FMN 200 uM) 46.6 nM; under setting [4], 35.3 nM; (input ligand: none) 46.5 nM.

Regarding “GUGCUAUGAGGAUAUACGUUGGUGGGCAUCUGUGUGCUCCUACAUGAGGAUCACCCAUGUAGAAGGCAUGUCAC [LRO-Excl2-20] (Eterna round: R96, puzzle: Exclusion 2)”, the “apparent KD of MS2 coat protein” value (input ligand: FMN 200 uM) came to 22.9 nM, the “apparent KD of MS2 coat protein” value under setting [4] was 9.33 nM and the “apparent KD of MS2 coat protein” value (input ligand: none) amounted to 14.1 nM.

In the case of “UUUAUGUAAGGAUAUAUGGGUUUAAAUGAAAAUUUGGGCCCAUAGAAGGUACAUGAGGAUCACCCAUGUAGUGG [-24.4, -24.3 kcal, 32% A] (Eterna round: R97, puzzle: Exclusion 4)”, the “apparent KD of MS2 coat protein” value came out at 474 nM (input ligand: FMN 200 uM) and 641 nM (input ligand: none).

On to “UCAAACAUCGUUAGGAUAUGCUGGACUAAAUAGUGGCAGAAGGAACAUGAGGAUCACCCAUGUGCCUCGAUUGC [Eternabot (L2) Solution 26] (Eterna round: R97, puzzle: Brourd's mod of Exclusion 4)”, for which the “apparent KD of MS2 coat protein” value by setting is: (input ligand: FMN 200 uM) 17.4 nM; (input ligand: none) 13.4 nM.

On to “UUAUUAUAUGUAGGAUAUGCGUAUUAUUGUUAUGCAGAAGGACAUGAGGAUCACCCAUGUAUAUUAUUGUUGUAUAUUAUAUAU [Title] (Eterna round: R96, puzzle: Exclusion NG 1)”, for which the “apparent KD of MS2 coat protein” value under setting [4] is 20.7 nM.

For the sequence “CUGUACUGAGGAUAUACAUGAGGAUCACCCAUGUGAUCUAGUGCACGCGUACGUGUACGUAGAAGGCAGUACAG [Mat - Exclusion 3 - Eli Mod - D38] (Eterna round: R97, puzzle: Exclusion 3)”, the “apparent KD of MS2 coat protein” value is, setting by setting: (input ligand: FMN 200 uM) 792 nM; (input ligand: none) 56.5 nM.
